Reference: patent US20150203581A1 (Genentech, published 2015)
Positions count from the first letter of the chain named. Names and notes keep the numbering of the source. Read-outs that look alike come from different tables or passages of the source. Values belong to the binder of their own block, whether it stands above or below them.

What was measured:
[1] = target: T1, recombinant human integrin α5β1 (human, UniProt P08648 42-995; P05556 21-728); test: SPR (BIAcore), antibody as hIgG is the captured ligand, Human Integrin α5β1 (R&D) is the analyte
T1 construct: also called human α5β1 integrin
T1 sequence (P08648 42-995 limits assumed, chain 1 of 2): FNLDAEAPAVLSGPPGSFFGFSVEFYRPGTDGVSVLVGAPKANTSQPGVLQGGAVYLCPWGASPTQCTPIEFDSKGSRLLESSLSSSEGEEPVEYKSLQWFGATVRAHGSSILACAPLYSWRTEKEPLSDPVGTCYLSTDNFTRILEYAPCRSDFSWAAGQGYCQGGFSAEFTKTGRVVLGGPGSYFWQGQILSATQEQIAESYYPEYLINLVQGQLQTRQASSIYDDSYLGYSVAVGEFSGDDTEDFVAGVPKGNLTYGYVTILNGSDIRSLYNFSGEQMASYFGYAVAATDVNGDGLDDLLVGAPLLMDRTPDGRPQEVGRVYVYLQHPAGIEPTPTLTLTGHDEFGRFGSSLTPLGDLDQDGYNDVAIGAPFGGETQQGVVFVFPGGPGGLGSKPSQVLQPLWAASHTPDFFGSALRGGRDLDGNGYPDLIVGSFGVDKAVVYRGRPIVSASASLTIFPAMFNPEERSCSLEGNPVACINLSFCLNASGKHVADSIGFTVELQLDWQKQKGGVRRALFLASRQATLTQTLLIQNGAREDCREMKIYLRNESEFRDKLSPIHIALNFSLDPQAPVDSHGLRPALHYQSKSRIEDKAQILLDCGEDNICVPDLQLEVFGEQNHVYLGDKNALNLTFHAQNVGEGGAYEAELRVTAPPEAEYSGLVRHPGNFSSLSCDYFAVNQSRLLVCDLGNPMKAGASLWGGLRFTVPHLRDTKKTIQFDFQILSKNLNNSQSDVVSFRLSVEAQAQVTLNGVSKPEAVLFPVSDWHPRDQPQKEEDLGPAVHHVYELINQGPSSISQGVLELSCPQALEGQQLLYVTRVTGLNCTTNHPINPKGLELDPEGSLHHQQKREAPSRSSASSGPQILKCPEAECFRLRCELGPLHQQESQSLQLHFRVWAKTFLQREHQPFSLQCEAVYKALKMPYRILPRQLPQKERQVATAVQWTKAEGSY
T1 sequence (P05556 21-728 limits assumed, chain 2 of 2): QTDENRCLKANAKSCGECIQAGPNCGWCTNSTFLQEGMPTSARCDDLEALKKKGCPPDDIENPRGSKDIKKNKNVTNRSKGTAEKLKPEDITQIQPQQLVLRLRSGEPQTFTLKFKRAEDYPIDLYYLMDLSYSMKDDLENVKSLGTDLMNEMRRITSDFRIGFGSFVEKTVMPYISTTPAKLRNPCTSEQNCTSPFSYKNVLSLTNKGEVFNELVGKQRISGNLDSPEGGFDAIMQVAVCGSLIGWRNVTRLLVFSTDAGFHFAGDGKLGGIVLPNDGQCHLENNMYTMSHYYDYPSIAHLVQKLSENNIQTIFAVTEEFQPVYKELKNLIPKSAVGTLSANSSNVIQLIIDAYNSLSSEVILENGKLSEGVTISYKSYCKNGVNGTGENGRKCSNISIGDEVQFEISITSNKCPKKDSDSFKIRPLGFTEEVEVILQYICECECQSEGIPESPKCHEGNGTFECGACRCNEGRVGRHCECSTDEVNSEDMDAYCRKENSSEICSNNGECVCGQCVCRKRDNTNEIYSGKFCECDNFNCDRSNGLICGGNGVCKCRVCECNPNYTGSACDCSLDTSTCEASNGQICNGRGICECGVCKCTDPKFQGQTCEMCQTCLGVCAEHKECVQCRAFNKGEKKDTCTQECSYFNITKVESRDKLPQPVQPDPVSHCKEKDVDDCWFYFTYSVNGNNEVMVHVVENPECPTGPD
Procedure: (§1) To determine binding kinetics and affinities of the antibodies described herein, Surface Plasmon Resonance (SRP) measurement with a BIAcore™-3000 instrument was used. Antibody was first captured by pre-immobilized rabbit anti-human Fc CM5 biosensor chip on the different flow cell to achieve approximately 150 RU (Response Units). For kinetics measurements, 2-fold serial dilutions of human integrin α5β1 (300 nM to 1.2 nM) were injected in PBT buffer (PBS with 0.05% Tween 20) at 25° C. with a flow rate of 30 μl/min. Association rates (kₒₙ) and dissociation rates (koff) were calculated using a simple one-to-one Langmuir binding model (BIAcore Evaluation Software version 3.2). The equilibrium dissociation constant (KD) was calculated as the ratio koff/kₒₙ.
(§2) To determine binding kinetics and affinities of chimeric 18C12, h18C12.v6.1, h18C12.v6.1.1, h18C12.v6.1.2, h18C12.v6.1.3, h18C12.v6.1.4, h18C12.v6.1.5 IgGs, Surface Plasmon Resonance (SRP) measurement with a BIAcore™-3000 instrument as described in Example 1 was used.

[2] = target: T1, recombinant human integrin α5β1; test: cell-based or functional assay
[3] = target: T1, recombinant human integrin α5β1; test: SPR (BIAcore), IgG captured on anti-human Fc chip, Human Integrin α5β1 (R&D) as analyte
Procedure: as §1, §2

[4] = target: T1, recombinant human integrin α5β1; test: SPR (BIAcore), antibody as hIgG is the captured ligand, Human Integrin α5β1 (R&D) is the analyte; remark: listed apart in the source
Procedure: as §1

[5] = target: T1, recombinant human integrin α5β1; test: phage competition ELISA: Fab-displaying phage pre-incubated with serially diluted soluble human integrin α5β1, unbound phage captured on plate-coated human integrin α5β1, anti-M13-HRP detection
Procedure: MAXISORP™ microtiter plates were coated with recombinant human integrin β5β1 (R&D) at 5 μg/ml in PBS overnight and then blocked with PBST buffer (0.5% BSA and 0.05% Tween 20 in PBS) for an hour at room temperature. Phage from culture supernatants were incubated with serially diluted human integrin α5β1 in PBST buffer in a tissue-culture microtiter plate for an hour, after which 80 μl of the mixture was transferred to the target-coated wells for 15 minutes to capture unbound phage. The plate was washed with PBT buffer (0.05% Tween 20 in PBS), and HRP-conjugated anti-M13 (Amersham Pharmacia Biotech) was added (1:5000 in PBST buffer) for 40 minutes. The plate was washed with PBT buffer and developed by adding tetramethylbenzidine substrate (Kirkegaard and Perry Laboratories, Gaithersburg, Md.). The absorbance at 450 nm was plotted as a function of target concentration in solution to determine phage IC₅₀.

[6] = target: T1, recombinant human integrin α5β1; test: cell-based or functional assay; remark: listed apart in the source
[7] = target: T2, recombinant α5β1 extracellular domain; test: blocking ELISA: antibody titrated and premixed with recombinant α5β1 (R&D), then added to fibronectin-coated wells; bound α5β1 detected with anti-β1-biotin / streptavidin-HRP (OD450); the blocked ligand is fibronectin
T2 construct: extracellular domain; also called α5β1 (R & D Systems)
T2 sequence (P08648 42-995, chain 1 of 2): as the sequence (P08648 42-995 limits assumed, chain 1 of 2) above
T2 sequence (P05556 21-728, chain 2 of 2, further chain): as the sequence (P05556 21-728 limits assumed, chain 2 of 2) above
Procedure: anti-β5β1 antibody (30 μg/mL) was serially diluted 1:3 11 times. 50 μl of the serially diluted anti-β5β1 antibody was added to 0.65 mL micro tubes and premixed (1:1) with 50 μL of 200 ng/mL […] (R & D Systems) in ELISA buffer (150 mM NaCl, 10 mM Tris, pH 7.5, 5 mg/mL BSA, 1 mM MnCl₂) for 60 minutes at room temperature with gentle agitation. 25 μL of the premixed α5β1 and anti-β5β1 antibody was added to the Fibronectin coated wells and the plates were incubated at room temperature for 60 minutes with gentle agitation. Plates were washed 6 times with PBT buffer, 100 ng/mL anti-β1-biotin in ELISA buffer was added to each well and the plates were incubated for 60 minutes at room temperature with gentle agitation. Plates were washed 6 times with 80 μL PBT buffer, 25 μL of Streptadvidin-HRP (1:50,000 in ELISA buffer, GE Healthcare) was added to each well, and the plates were incubated for 60 minutes at room temperature with gentle agitation. Plates were washed 6 times with 80 μL PBT buffer, 25 μl of TMB substrate (Kirkgaard and Perry Laboratories) was added to each well, plates were incubated about 6 minutes at room temperature, and the reaction was stopped with 25 μL of 1 M Phosphoric Acid. Absorbance was read at 450 nm and IC₅₀ values were analyzed as described in section B above. […]

[8] = target: T1, recombinant human integrin α5β1; test: BIAcore SPR, IgG captured by anti-human Fc, human integrin α5β1 as analyte
Procedure: as §1, §2

B2: h18C12.v6.1.2 (antibody, V domains shown)
VH: EVQLVESGGGLVQPGGSLRLSCAASGFTFSARWIYWVRQAPGKGLEWVGGIKTKPAIYATEYADSVKGRFTISRDDSKNTLYLQMNSLRAEDTAVYYCARLTGMKYFDYWGQGT
VL: SSELTQDPAVSVALGQTVRITCTLSSQHSTYTIGWYQQKPGQAPVYLMYLNSDGSHNKGSGIPDRFSGSSSGATRSLTITNAQAEDEADYYCAAYYAYGYVFGGGT
notes: copies: 2 + 2
Kd [3]: 13.5 nM | koff [3]: 0.000643 s⁻¹ | kon [3]: 48000 M⁻¹ s⁻¹

B3: h18C12.v3 (Fab, V domains shown)
VH: B2 VH with A31N, A56N, K105R
VL: EPVLTQSPSASASLGASVKLTCTLSSQHSTYTIGWYQQQPGKAPRYLMYLNSDGSHNKGDGIPDRFSGSSSGADRYLTISNLQSEDEADYYCGSSYSSGYVFGGGT
notes: also called Humanized 18C12.v3; h18C12.v3 parental clone
Kd [4]: 11.5 nM | koff [4]: 0.000807 s⁻¹ | kon [4]: 71000 M⁻¹ s⁻¹ | IC50 [5]: 0.72 nM

B4: h18C12.v6 (Fab, V domains shown)
VH: B2 VH with A31N, A56N
VL: B3 VL with G93A, S94A, S95Y, S97A, S98Y
Kd [4]: 4.8 nM | koff [4]: 0.00075 s⁻¹ | kon [4]: 174000 M⁻¹ s⁻¹ | IC50 [5]: 0.41 nM

Second part, the binder after the results:

Kd [1]: 7.68 nM | koff [1]: 0.000922 s⁻¹ | kon [1]: 120000 M⁻¹ s⁻¹ | IC50 for inhibition of adhesion of U937 cells to plate-coated fibronectin (Cell-Titer Glo luminescence); the target is α5β1 on the U937 cells [2]: 159 pM
B1: chimeric 18C12 (antibody, V domains shown)
VH: EVHLVESGGDLVQPGSSLKLSCAASGFTFSNRWIYWVRQAPGKGLEWVGGIKTKPNIYATEYADSVKGRFTISRDDSKNSLYLQMNTLRVDDTAIYYCTSLTGMRYFDYWGQGT
VL: QPVLTQSPSASASLGNSVKITCTLSSQHSTYTIGWYQQHPDKAPKYVMYLNSDGSHNKGDGIPDRFSGSSSGAHRYLSISNIQPEDEADYFCGSSYSSGYVFGSGT
notes: also called chimeric 18C12 IgG

IC50 for inhibition of adhesion of U937 cells to plate-coated fibronectin (Cell-Titer Glo luminescence); the target is α5β1 on the U937 cells [6]: 126 pM | IC50 [7]: 0.077 nM | Kd [3]: 15.5 nM | koff [3]: 0.000659 s⁻¹ | kon [3]: 43000 M⁻¹ s⁻¹
B5: h18C12.v6.1.5 (antibody, V domains shown)
VH: B2 VH
VL: B2 VL with G54S
notes: Derived from h18C12.v6.1 by removing Asn in CDR-L2 positions 50a-50d; also called anti-α5β1 antibody h18C12.v6.1.5

Kd [1]: 4 nM | koff [1]: 0.000386 s⁻¹ | kon [1]: 97000 M⁻¹ s⁻¹ | fold higher binding affinity than hamster 18C12 [8]: ~2 fold | IC50 for inhibition of adhesion of U937 cells to plate-coated fibronectin (Cell-Titer Glo luminescence); the target is α5β1 on the U937 cells [2]: 207 pM
B6: h18C12.v6.1Lam3 (antibody, V domains shown)
VH: B2 VH
VL: B2 VL with D53S
notes: CDRs come from h18C12.v6 with changes in CDR-L2 (D50cS, D56S), CDR-H1 (N31A) and CDR-H2 (N53A); The human λIII framework carries L46Y, V47L, I48M, N69A, A71R and G77N
